Patent publication US20110195896A1, “ISOFORM-SPECIFIC INSULIN ANALOGUES” (CASE WESTERN RESERVE UNIVERSITY, priority 2008, published 2011)
pKd: −log10 of the molar value.

How the values were obtained:
[1] = molecular target: human insulin receptor isoform B (human) (UniProt P06213); test: competitive displacement of 125I-insulin from receptor
[2] = molecular target: human insulin receptor isoform B (human) (UniProt P06213); test: competitive displacement of 125I-human insulin, FLAG-tagged receptor captured on anti-FLAG plate; details: scale: % of the affinity of human insulin for IR-A

Chain of His^A8, Asp^B10, Asp^B28, Pro^B29 insulin (two chain analogue) (ligand) (chain): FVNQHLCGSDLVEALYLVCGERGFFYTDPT
Chain of His^A8, Asp^B10, Asp^B28, Pro^B29 insulin (two chain analogue) (ligand) (chain): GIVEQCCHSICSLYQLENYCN

His^A8, Asp^B10, Asp^B28, Pro^B29 insulin (two chain analogue) (ligand)
pKd [1]: 11.00
relative affinity (relative to human insulin) [1]: 4.7

Insulin-like Growth Factor 1 (from UniProt P05019 49-118) (ligand)
relative affinity [2]: 0.7

insulin-like growth factor II (from UniProt P01344 25-91) (ligand)
relative affinity [2]: 4
